This experiment has as its target purified β protein (β clamp) (UniProt P0A988). Put plainly: SPR. A general note: SPR reads the build-up and loss of mass on a sensor chip optically.

The values that follow come from paper PMC2752310.

B1: His-6-tagged TnsE, purified (natural protein)
chain: MVRLATFNDNVQVVHIGHLFRNSGHKEWRIFVWFNPMQERKWTRFTHLPLLSRAKVVNSTTKQINKADRVIEFEASDLQRAKIIDFPNLSSFASVRNKDGAQSSFIYEAETPYSKTRYHIPQLELARSLFLINSYFCRSCLSSTALQQEFDVQYEVERDHLEIRILPSSSFPKGALEQSAVVQLLVWLFSDQDVMDSYESIFRHYQQNREIKNGVESWCFSFDPPPMQGWKLHVKGRSSNEDKDYLVEEIVGLEINAMLPSTTAISHASFQEKEAGDGSTQHIAVSTESVVDDEHLQLDDEETANIDTDTRVIEAEPTWISFSRPSRIEKSRRARKSSQTILEKEEATTSENSNLVSTDEPHLGGVLAAADVGGKQDATNYNSIFANRFAAFDELLSILKTKFACRVLFEETLVLPKVGRSRLHLCKDGSPRVIKAVGVQRNGSEFVLLEVDASDGVKMLSTKVLSGVDSETWRNDFEKIRRGVVKSSLNWPNSLFDQLYGQDGHRGVNHPKGLGELQVSREDMEGWAERVVREQFTH
As a reminder, the Kd is the free concentration of one partner at which half of the binding sites on the other are occupied at equilibrium, for simple one-to-one binding. B1 returned a Kd of 2440 nM.
